Reference: patent US20210101973A1 (NGM BIOPHARMACEUTICALS, published 2021)
One block for each binder: values may come before it.

Molecular target: T1, synthetic LEAP2 peptide (mature peptide of human LEAP2) (human)
T1 peptide: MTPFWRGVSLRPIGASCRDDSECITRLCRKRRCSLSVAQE
Experiment: cell-based or functional assay

EC50 of blocking LEAP2 inhibition of GHSR activity (antibody mixed with LEAP2, antagonist format, GHSR-stable cell line): 170 nM
B1: anti-LEAP2 monoclonal antibody M1/M2 (antibody, V domains shown)
VH: EVQLQQSGTVLARPGASVKMSCKASGYTFTSYWMHWVKQRPGQGLEWIGAIYPGNSDTSYKQKFKGKAKLTAVTSASTVYMELSSLTDEDSAVYYCTYGKEEYLFAMDYWGQGTSVTVSS
VL: not shown

EC50 of blocking LEAP2 inhibition of GHSR activity (antibody mixed with LEAP2, antagonist format, GHSR-stable cell line): 680 nM
B2: anti-LEAP2 monoclonal antibody M18 (antibody, V domains shown)
VH: EIQLQQSGPELMKPGASVKISCKASGYSFTNYYIHWVKQSHGKSLEWIGYIDPFNGGTNYNQKFKGKATLTVDKSSSTAYMHLSSLTFEDSAVYYCARRGYYYGFTYWGQGTLVTVSA
VL: DIVLTQSPASLAVSLGQRATISCKASQSVDYDGDSYMNWYQQKPGQPPKLLIYTASNLESGIPARFSGSGSGTDFTLNIHPVEEEDAATYYCQQSNEDPYTFGGGTKLEIK
